Target: Nedd4 on the surface of virus-infected MDCK cells (canine (MDCK cells))
Assay: cell-based or functional assay

Substance	inhibition of viral replication (ADCC mediated, in vitro)
Human Nedd4 antibody Ab101AP	80 % inhibition
Human Nedd4 antibody Ab27979	80 % inhibition

Source: patent publication US8535684
